Experimental findings from patent publication US20230331840A1 (published 2023) are described below.

B1: RFB-4 (antibody, V domains shown)
VH: EVQLVESGGGLVKPGGSLKLSCAASGFAFSIYDMSWVRQTPEKRLEWVAYISSGGGTTYYPDTVKGRFTISRDNAKNTLYLQMSSLKSEDTAMYYCARHSGYGSSYGVLFAYWGQGTLVTVSA
VL: DIQMTQTTSSLSASLGDRVTISCRASQDISNYLNWYQQKPDGTVKLLIYYTSILHSGVPSRFSGSGSGTDYSLTISNLEQEDFATYFCQQGNTLPWTFGGGTKLEIK
B2: CD22 antibody FC2-153 (antibody, V domains shown)
VH: QVQLQQSGAELMKPGASVKISCKATGYTFSSYWIEWVKQRPGHGLEWIGEILPGSGSTNYNEKFKGKATFTADTSSNTAYMQLSSLTSEDSAVYYCARWGQLGLFYAMDYWGQGTSVTVSS
VL: DIQMTQSPASLSASVGETVTITCRASENIYSYLAWYQQKQGKSPQLLVYNAKTLAEGVPSRFSGSGSGTQFSLKINSLQPEDFGSYYCQHHYGSPLTFGAGTKLELKR
B3: CD22 antibody FC2-070 (antibody, V domains shown)
VH: QVQLQQPGAELVKPGTSVKLSCKASGYNFTSYWINWVKLRPGQGLEWIGDIYPGSGNTNYNEKFKSKATLTVDTSSTTAYMQLSSLASEDSALYYCARRGYLDYWGQGTTLTVSS
VL: B2 VL with E27G, Y30H, S31N, E56D, F71Y, K74T, H91F, Y92W, G93S, S94T
B4: CD22 antibody FC2-117 (antibody, V domains shown)
VH: DVQLQESGPGLVKPSQSLSLTCSVTGYSITSGYYWNWIRQFPGNKLEWMGYISYDGSNNYNPSLKNRISITRDTSKNQFFLKLNSVTTEDTATYYCTKGGYGYYFDYWGQGTTLTVSS
VL: DIQMTQSPASLSASVGETVTITCRASGNIHNYLAWYQQKQGKSPQLLVYNAKTLADGVPSRFSGSGSGTQYSLKINSLQPEDFGSYYCQHFWSTPPTFGGGTKLEIKR
B5: CD22 antibody FC2-201 (antibody, V domains shown)
VH: KVQLQQSGAGLVKPGASVKLSCKASGYTFTDSILHWLMQRSGQGLEWIGWFYPGSGSIKYNEKFKDKATLTADKSSSTVYMELSRLTSEDSAFYFCARHEDGYDGFAYWGQGTLVTVSA
VL: ENVLTQSPAIMSASLGEKVTMSCRASSSVNYIFWYQQKSDASPKLWIYYTSNLAPGVPARFSGSGSGNSYSLTISSMEGEDAATYYCQQFTSSPFTFGSGTKLEIKR
B6: CD22 antibody FC2-203 (antibody, V domains shown)
VH: QVQLQQPGAELVRPGASVKLSCKASGYTFSSYWINWVKQRPGQGLEWIGNIYPSDSYTNYNQKFKDKATLTVDKSSSTAYMQLSSPTSEDSAVYYCTREGHYYGSFGAMDYWGQGTSVTVSS
VL: DVQITQSPSYLAASPGETITINCRASKTISKYLAWYQEKPGKTNKLLIYSGSTLQSGIPSRFSGSGSGTDFTLTISSLEPEDFAMYYCQQHNEYPWTFGGGTKLEIKR

Where a chain is given by its changes, count along the chain named.

The target in the first assay is K562-CD22 (UniProt P20273 20-847). Briefly: FACS binding.
The molecule B1 had an EC50 of 0.632 nM.

Another assay deals with T1, Human CD22 extracellular segment conjugated His label (human, UniProt P20273 20-687). Briefly: ELISA.
B2 yielded an EC50 of 0.145 nM.
Same read-out and setting: the value for B3 was 0.154 nM; that for B4 was 0.629 nM.
Same read-out and setting: the value for B5 was 0.096 nM; that for B6 was 0.457 nM.

A further assay concerns the target T1, Human CD22 extracellular segment …. The assay can be described thus: BLI (Fortebio).
B2 gave a Kd of 0.92 nM.
On the same count and under the same terms, the same measure for B3: 0.569 nM.
Take B4: the Kd was found to be 2.73 nM.
On the same count and under the same terms, the same measure for B5: 0.0722 nM; for B6: 7.08 nM.
